From paper PMC6435475, “Structural and functional characterisation of the entry point to pyocyanin biosynthesis in Pseudomonas aeruginosa defines a new 3-deoxy-D-arabino-heptulosonate 7-phosphate synthase subclass” (Bioscience Reports, 2018)

Experiments:
C=C(OP(=O)(O)O)C(=O)O = test: purified protein; conditions: E4P 150 μM, Co2+ 100 μM, pH 7.5, 37 °C
Source text: (§1) initial-rate UV-Vis spectrophotometric assay on PaeDAH7PS^PA1901 (type II DAH7PS, phzC)

[1] = system: O=C[C@H](O)[C@H](O)COP(=O)(O)O; test: purified protein; conditions: PEP 150 μM, Co2+ 100 μM, pH 7.5, 37 °C
Source text: as §1

[2] = molecular target: the molecule itself; test: SEC-SAXS; injection concentration 8.0 mg/ml (180 uM; also 5.0 mg/ml), Superdex S200, 50 mM bis-tris propane pH 7.5, 100 uM cobalt chloride, 200 uM PEP, 5% glycerol, 293 K; elution peak deconvoluted into two Gaussian components (peaks A and B)
[3] = molecular target: the molecule itself; test: crystal structure; microbatch crystallisation, protein 3-5 mg/ml (67-112 uM), 0.2 M sodium fluoride, 1 mM cobalt chloride, 1 mM PEP, 18% PEG 3350, 278 K; space group C222(1), two chains in the asymmetric unit, tetramer by a two-fold crystallographic symmetry operation

Molecule | Km (C=C(OP(=O)(O)O)C(=O)O) [µM] | kcat (C=C(OP(=O)(O)O)C(=O)O) [s⁻¹] | kcat/Km (C=C(OP(=O)(O)O)C(=O)O) [M⁻¹ s⁻¹] | Km [1] [µM] | kcat [1] [s⁻¹] | kcat/Km [1] [M⁻¹ s⁻¹] | stoichiometry N [2] | stoichiometry N [3]
PaeDAH7PS^PA1901 (type II DAH7PS, phzC) (Pseudomonas aeruginosa PAO1) | 17 ± 1 | 19.8 ± 0.4 | 1.16e+06 ± 100000 | 16 ± 3 | 19.8 ± 0.4 | 1.24e+06 ± 150000 | – | –
PaeDAH7PS^PA1901 (3-deoxy-D-arabino-heptulosonate 7-phosphate synthase encoded by phzC, Pseudomonas aeruginosa PAO1) (enzyme, 3-deoxy-D-arabino-heptulosonate 7-phosphate synthase (type II DAH7PS) encoded by phzC, ORF PA1901 (duplicated as PA4212), Pseudomonas aeruginosa PAO1; the ORF was amplified from gDNA; residues up to 405 are named; measured mass of a single chain 44470 Da (calculated 44468 Da); Homodimer in solution at low concentration (AUC, SEC-SAXS); homotetramer in the crystal and at high concentration in …) MDDLLQRVRRCEALQQPEWGDPSRLRDVQAYLRGSPALIRAGDILALRATLARVARGEALVVQCGDCAEDMDDHHAENVARKAAVLELLAGALRLAGRRPVIRVGRIAGQYAKPRSKPHEQVGEQTLPVYRGDMVNGREAHAEQRRADPQRILKGYAAARNIMRHLGWDAASGQEANASPVWTSHEMLLLDYELSMLREDEQRRVYLGSTHWPWIGERTRQVDGAHVALLAEVLNPVACKVGPEIGRDQLLALCERLDPRREPGRLTLIARMGAQKVGERLPPLVEAVRAAGHPVIWLSDPMHGNTIVAPCGNKTRLVRSIAEEVAAFRLAVSGSGGVAAGLHLETTPDDVTECVADSSGLHQVSRHYTSLCDPRLNPWQALSAVMAWSGAEAIPSATFPLETVA | – | – | – | – | – | – | 2 | 4
